The values below come from patent US10689429B2, “Double-acylated GLP-1 compounds” (Novo Nordisk A/S, priority 2014, dated 2020).

Data set [1] in a line: Pharmacodynamic (PD) study in pigs, effect on food intake. The class given is in vivo.
Procedure: The purpose of this experiment is to investigate the effect of the GLP-1 derivatives on food intake in pigs. This was done in a pharmacodynamic (PD) study as described below, in which food intake was measured from 1 to 4 days after administration of a single dose of the GLP-1 derivative, as compared to a vehicle-treated control group.
Female Landrace Yorkshire Duroc (LYD) pigs or Large White hybrid, approximately 3 months of age, weighing approximately 30-35 kg were used (n=3-4 per group). The animals were housed in a group for approximately 1 week during acclimatisation to the animal facilities. During the experimental period the animals were placed in individual pens at least 2 days before dosing and during the entire experiment for measurement of individual food intake.
The animals were fed ad libitum with pig fodder (Svinefoder Danish Top or HRC Sow and Weaner Diet) at all times both during the acclimatisation and the experimental period. Food intake was monitored on line by logging the weight of fodder every 15 minutes using the Mpigwin system (Ellegaard Systems, Faaborg, Denmark). Alternatively fodder was offered in the morning each day, and availability for the full 24-hour period was ensured. Any uneaten fodder was removed and weighed (manually) on the following morning, and replaced with fresh fodder.
The GLP-1 derivatives were dissolved in a phosphate buffer (50 mM sodium phosphate, 70 mM sodium chloride, 0.05% tween 80, pH 7.4) at concentrations of approximately 120 nmol/ml corresponding to doses of 3 nmol/kg. The phosphate buffer served as vehicle.
On the last day of each study, 2 or 4 days after dosing, a blood sample for measurement of plasma exposure of the GLP-1 derivative was taken from the heart in anaesthetised animals.
Food intake was calculated in 24 h intervals (0-24 h, 24-48 h, 48-72 h and 72-96 h).
For data set [2], the target named is T1, human GLP-1 receptor (Homo sapiens, UniProt P43220).
T1 construct: expressed in transfected cells; host or cells: membranes from BHK cells, parent line BHKTS13, clone FCW467-12A
Nature of the data set: In vitro potency, CRE luciferase reporter gene assay in BHK cells expressing the human GLP-1 receptor.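 Also: firefly luciferase luminescence read after 3 h incubation at 37 °C, compounds tested in an eight-point series from 0.01 pM to 100 nM.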 The class given is cell-based. The conditions noted are these: average of duplicates. A general note: Reporter assays use an easily measured gene product as a stand-in for the process of interest.
Target sequence in this assay (P43220 24-463): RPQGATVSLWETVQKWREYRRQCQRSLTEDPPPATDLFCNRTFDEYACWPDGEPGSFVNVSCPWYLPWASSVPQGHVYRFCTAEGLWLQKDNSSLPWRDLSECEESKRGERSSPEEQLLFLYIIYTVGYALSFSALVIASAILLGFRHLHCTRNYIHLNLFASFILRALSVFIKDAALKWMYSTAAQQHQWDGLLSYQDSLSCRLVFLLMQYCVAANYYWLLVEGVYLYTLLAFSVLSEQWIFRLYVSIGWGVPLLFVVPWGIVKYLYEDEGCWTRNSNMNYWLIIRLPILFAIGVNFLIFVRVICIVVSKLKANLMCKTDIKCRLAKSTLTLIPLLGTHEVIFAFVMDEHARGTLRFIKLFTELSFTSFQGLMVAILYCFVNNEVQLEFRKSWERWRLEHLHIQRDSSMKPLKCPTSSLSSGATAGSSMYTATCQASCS
Procedure: The in vitro potency is the measure of human GLP-1 receptor activation in a whole cell assay.
In vitro potency was determined by measuring the response of the human GLP-1 receptor in a reporter gene assay. The assay was performed in a stably transfected BHK cell line that expresses the human GLP-1 receptor and contains the DNA for the cAMP response element (CRE) coupled to a promoter and the gene for firefly luciferase (CRE luciferase). When the human GLP-1 receptor is activated it results in the production of cAMP, which in turn results in the luciferase protein being expressed. When assay incubation is completed the luciferase substrate (luciferin) is added and the enzyme converts luciferin to oxyluciferin to produce bioluminescence. The luminescence is measured as the readout for the assay.
An increase of the in vitro potency, EC50 value, in the presence of serum albumin would indicate an affinity to serum albumin and represents a method to predict a protracted pharmacokinetic profile of the test substance in animal models.
The cells were cultured at 5% CO2 in Cell Culture Medium. They were aliquoted and stored in liquid nitrogen. Before each assay an aliquot is taken up and washed twice in PBS before being suspended at the desired concentration in the assay specific buffer. For 96-well plates the suspension was made to give a final concentration of 5×10^3 cells/well.
Assay Medium consisted of DMEM w/o phenol red, 10 mM Hepes and 1× Glutamax. The 1% Assay Buffer consisted of 2% ovalbumin, 0.2% Pluronic F-68 and 2% HSA in Assay Medium. The 0% Assay Buffer consisted of 2% ovalbumin and 0.2% Pluronic F-68 in Assay Medium.
1) Cell stocks were thawed in a 37° C. water bath.
2) Cells were washed three times in PBS.
3) The cells were counted and adjusted to 5×10^3 cells/50 μl (1×10^5 cells/ml) in Assay Medium. A 50 μl aliquot of cells was transferred to each well in the assay plate.
4) Stocks of the test compounds and reference compounds were diluted to a concentration of 0.2 pM in 0% Assay Buffer for the 0% HSA CRE luciferase assay and 1% Assay Buffer for the 1% HSA CRE luciferase assay. […] Compounds were tested at the following final concentrations: 1×10^−7 M, 1×10^−8 M; 1×10^−9 M, 1×10^−10 M, 1×10^−11 M, 1×10^−12 M, 1×10^−13 M, and 1×10^−14 M. 6) The assay plate was incubated for 3 h in a 5% CO2 incubator at 37° C. […] 8) A 100 μl aliquot of steadylite plus reagent was added to each well of the assay plate (reagent was light sensitive). 9) Each assay plate was covered with aluminum foil to protect it from light and shaken for 30 min at room temperature. 10) Each assay plate was read in a Packard TopCount NXT instrument. Calculations and Results
The data from the TopCount instrument were transferred to GraphPad Prism software. The software performs a non-linear regression (log(agonist) vs response).
A minimum of two replicates was measured for each sample on separate assay plates. The reported values are averages of the duplicates. For some examples more than one assay was run and in this case the data reported are the averages of the averaged duplicates.

In data set [3] the target is T1, human GLP-1 receptor. Nature of the data set: GLP-1 receptor binding, competitive 125I-GLP-1 SPA binding assay on isolated membranes. The conditions noted are these: IC50/nM (low HSA), low HSA (max. 0.001% final assay concentration).
A short description of data set [4]: Pharmacokinetic study in mini pigs after i.v. administration. The class given is in vivo. The conditions noted are these: female, Göttingen, pig, plasma, iv, 2 nmol/kg; read-out: Minipig iv PK, t½ (converted).
Procedure: The purpose of this study is to determine the protraction in vivo of the GLP-1 derivatives after i.v. administration to mini pigs, i.e. the prolongation of their time in the body and thereby their time of action. This was done in pharmacokinetic (PK) studies, where the terminal half-life of the derivative in question was determined. By terminal half-life is generally meant the period of time it takes to halve a certain plasma concentration, measured after the initial distribution phase.
Female Göttingen mini pigs obtained from Ellegaard Göttingen Minipigs (Dalmose, Denmark) at approximately 5 months of age and weighing approximately 10 kg were used in the studies. The mini pigs were housed in pens with straw as bedding, four to six together in each pen and fed restrictedly once or twice daily with Altromin 9023 mini pig diet (Chr. Petersen A/S, DK-4100 Ringsted). The pigs were used for repeated pharmacokinetic studies with a suitable wash-out period between successive GLP-1 derivative dosings. An acclimatisation period of 1 week was allowed during which time the mini pigs were trained to be fixated on the back for blood sampling and in slings for i.v. dosing. All handling, dosing and blood sampling of the animals was performed by trained and skilled staff.
The GLP-1 derivatives were dissolved in 50 mM sodium phosphate, 70 mM sodium chloride, 0.05% tween 80, pH 7.4 to a concentration of approximately 20 nmol/ml. Intravenous injections (the volume corresponding to usually 2 nmol/kg, for example 0.1 ml/kg) of the compounds were given as intravenous injections via a Venflon inserted in an ear vein, while the animals were placed un-anaesthetised in a sling. The dose volume was 0.1 ml/kg, and blood was sampled at predefined time points for up till 13 days post dosing (samples were taken with a syringe from a jugular vein). Blood samples (for example 0.8 ml) were collected in EDTA buffer (8 mM) and then centrifuged at 4° C. and 2000 G for 10 minutes.
Individual plasma concentration-time profiles were analysed by a non-compartmental model in WinNonlin v. […] 6.2 or 6.3 (Pharsight Inc., Mountain View, Calif., USA), or other relevant software for PK analysis, and the resulting terminal half-lives determined.
The target in data set [5] is T2, human GLP-1 receptor (human, UniProt P43220).
Target sequence in this assay (P43220 24-463): as above
For data set [6], the target named is T2, human GLP-1 receptor. Put plainly: displacement of [125I]-GLP-1-(7-36)NH2 from membranes with human GLP-1 receptor, SPA, low HSA (0.001%). Background: Displacement assays read how much labelled ligand stays bound in the presence of the test substance.
Procedure: (§1) Each derivative is added in a series of concentrations to isolated membranes containing the human GLP-1 receptor and displacement of the labelled ligand is monitored. The receptor binding is reported as the concentration at which half of the labelled ligand is displaced from the receptor, the $IC50$ value.
(§2) For the receptor binding assay in the presence of low HSA (0.001%) 50 μl of the assay buffer was added to each well of an assay plate. […] For the receptor binding assay in the presence of high HSA (2.0%) 50 μl of the 8% albumin stock was added to each well of an assay plate. […] Cell membrane aliquots were thawed and diluted to their working concentration. Fifty μl were added to each well in the assay plate. […] WGA SPA beads were suspended in assay buffer at 20 mg/ml. The suspension was diluted to 10 mg/ml in assay buffer just prior to addition to the assay plate. Fifty μl were added to each well in the assay plate. […] A 25 μl aliquot was reserved for measuring total counts/well. […] The assay plate was incubated for 2 h at 30° C. […] The assay plate was centrifuged for 10 min. […] The assay plate was read in a Packard TopCount NXT instrument.
The target in data set [7] is T2, human GLP-1 receptor. Put plainly: displacement of [125I]-GLP-1-(7-36)NH2 from membranes with human GLP-1 receptor, SPA, high HSA (2.0%).
Procedure: as §1, §2
[8] abbreviates: EC50/pM (1% HSA), 1% HSA final assay concentration.

Where two headings read alike, the source gives them in different places. *1 amine or outer side, *2 acyl side, *3 side chain or, on linkers, in order; H or OH if unused. Where a SMILES comes first, the peptide text is derived from it. Where no end group is shown, it is not given here. Side-chain parts run from the residue outwards. [ ]: non-standard residue; d: D form. The star is where a group is joined. Undecanoyl(11-OPh(4-COOH)) = O=C(O)c1ccc(OCCCCCCCCCCC(=O)*)cc1; Decanoyl(10-O(3-COOH-Ph)) = O=C(O)c1cccc(OCCCCCCCCCC(=O)*)c1; γGlu = O=C(O)[C@H](CCC(=O)[*:2])N[*:1]; C14 diacid = O=C(O)CCCCCCCCCCCCC(=O)*; AEEA = NCCOCCOCC(=O)O; Aib = CC(C)(N)C(=O)O

Consider `CC[C@H](C)[C@H](NC(=O)[C@H](Cc1ccccc1)NC(=O)[C@H](CCC(=O)O)NC(=O)[C@H](CCCNC(=N)N)NC(=O)[C@H](C)NC(=O)[C@H](C)NC(=O)[C@H](CCC(N)=O)NC(=O)[C@H](CCC(=O)O)NC(=O)[C@H](CCC(=O)O)NC(=O)[C@H](CC(C)C)NC(=O)[C@H](Cc1ccc(O)cc1)NC(=O)[C@H](CO)NC(=O)[C@H](CO)NC(=O)[C@@H](NC(=O)[C@H](CC(=O)O)NC(=O)[C@H](CO)NC(=O)[C@@H](NC(=O)[C@H](Cc1ccccc1)NC(=O)[C@@H](NC(=O)CNC(=O)[C@H](CCC(=O)O)NC(=O)C(C)(C)NC(=O)[C@@H](N)Cc1c[nH]cn1)[C@@H](C)O)[C@@H](C)O)C(C)C)C(=O)N[C@@H](C)C(=O)N[C@@H](Cc1c[nH]c2ccccc12)C(=O)N[C@@H](CC(C)C)C(=O)N[C@H](C(=O)N[C@@H](CCCNC(=N)N)C(=O)NCC(=O)N[C@@H](CCCCNC(=O)COCCOCCNC(=O)COCCOCCNC(=O)COCCOCCNC(=O)COCCOCCNC(=O)CC[C@H](NC(=O)CCCCCCCCCCCCC(=O)O)C(=O)O)C(=O)N[C@@H](CCCCNC(=O)COCCOCCNC(=O)COCCOCCNC(=O)COCCOCCNC(=O)COCCOCCNC(=O)CC[C@H](NC(=O)CCCCCCCCCCCCC(=O)O)C(=O)O)C(=O)O)C(C)C` [Example 20], for which the “PD in pig, food intake (% of vehicle) for hours 0-24” value in data set [1] (single s.c. dose 3 nmol/kg, 0-24 h, NS = not significantly different from vehicle) is listed as 10 % of vehicle. Besides, the “PD in pig, food intake (% of vehicle) for hours 24-48” value in data set [1] (single s.c. dose 3 nmol/kg, 24-48 h, NS = not significantly different from vehicle) is on record as 18 % of vehicle. For the same molecule, in data set [1] (single s.c. dose 3 nmol/kg, 48-72 h, NS = not significantly different from vehicle), the “PD in pig, food intake (% of vehicle) for hours 48-72” value is on record as 65 % of vehicle. In addition, the “PD in pig, food intake (% of vehicle) for hours 72-96” value in data set [1] (single s.c. dose 3 nmol/kg, 72-96 h, NS = not significantly different from vehicle) is 81^NS % of vehicle. Also, the “reduction in food intake (in words)” value in data set [1] (single s.c. injection in pigs) was “largest reduction in food intake”. The EC50 at human GLP-1 receptor [2] (0% HSA, read-out: EC50/pM (0% HSA)) was 2.7 pM; at human GLP-1 receptor [2] (setting [8]), 5.8 pM.
For the molecule `CC[C@H](C)[C@H](NC(=O)[C@H](Cc1ccccc1)NC(=O)[C@H](CCC(=O)O)NC(=O)[C@H](CCCNC(=N)N)NC(=O)[C@H](C)NC(=O)[C@H](C)NC(=O)[C@H](CCC(N)=O)NC(=O)[C@H](CCC(=O)O)NC(=O)[C@H](CCC(=O)O)NC(=O)[C@H](CC(C)C)NC(=O)[C@H](Cc1ccc(O)cc1)NC(=O)[C@H](CO)NC(=O)[C@H](CO)NC(=O)[C@@H](NC(=O)[C@H](CC(=O)O)NC(=O)[C@H](CO)NC(=O)[C@@H](NC(=O)[C@H](Cc1ccccc1)NC(=O)[C@@H](NC(=O)CNC(=O)[C@H](CCC(=O)O)NC(=O)C(C)(C)NC(=O)[C@@H](N)Cc1c[nH]cn1)[C@@H](C)O)[C@@H](C)O)C(C)C)C(=O)N[C@@H](C)C(=O)N[C@@H](Cc1c[nH]c2ccccc12)C(=O)N[C@@H](CC(C)C)C(=O)N[C@H](C(=O)N[C@@H](CCC(N)=O)C(=O)NCC(=O)N[C@@H](CCCCNC(=O)COCCOCCNC(=O)COCCOCCNC(=O)CC[C@H](NC(=O)CCCCCCCCCCOc1ccc(C(=O)O)cc1)C(=O)O)C(=O)N[C@@H](CCCCNC(=O)COCCOCCNC(=O)COCCOCCNC(=O)CC[C@H](NC(=O)CCCCCCCCCCOc1ccc(C(=O)O)cc1)C(=O)O)C(=O)O)C(C)C` [Example 7] (H-H[Aib]EGTFTSDVSSYLEEQAAREFIAWLVQGK([AEEA-AEEA-γGlu-Undecanoyl(11-OPh(4-COOH))])K([AEEA-AEEA-γGlu-Undecanoyl(11-OPh(4-COOH))])-OH; N-terminus and C-terminus assumed), on human GLP-1 receptor [3], the IC50 (in general, the midpoint of a concentration-inhibition curve) amounted to 0.47 nM. Also, the half-life in data set [4] was 107 h. Also, the EC50 at human GLP-1 receptor [2] (EC50/pM (0% HSA), 0% HSA) is 1.5 pM; at human GLP-1 receptor [2] (setting [8]), 143 pM.
In the data set with human GLP-1 receptor [5], HGEGTFTSDVSSYLEEQAAREFIAWLVRGK([AEEA-AEEA-γGlu-Undecanoyl(11-OPh(4-COOH))])K([AEEA-AEEA-γGlu-Undecanoyl(11-OPh(4-COOH))]) [GLP-1 derivative of Example 17] had an EC50/pM (0% HSA) of 14 pM and an EC50/pM (1% HSA) of 199 pM. The molecule also yielded a half-inhibitory concentration (IC50) with human GLP-1 receptor [6] of 0.9 nM. The molecule also displayed an IC50 with human GLP-1 receptor [7] of 536 nM.
For H[Aib]EGTFTSDVSSYLEEQAAREFIAWLVRGKK (not fully specified (residues 30, 31)) [GLP-1 derivative of Example 1], in the data set with human GLP-1 receptor [5], the EC50/pM (0% HSA) amounted to 1.2 pM and the EC50/pM (1% HSA) turned out to be 136 pM. Moreover, in the data set with human GLP-1 receptor [6], the IC50 was determined as 0.21 nM. In addition, the IC50 in the data set with human GLP-1 receptor [7] was found to be 135 nM.
On to H[Aib]EGTFTSDVSSYLEEQAAREFIAWLVRGK([AEEA-AEEA-AEEA-AEEA-γGlu-C14 diacid])K([AEEA-AEEA-AEEA-AEEA-γGlu-C14 diacid]) [GLP-1 derivative of Example 20], for which, in the data set with human GLP-1 receptor [5], the EC50/pM (0% HSA) is 2.7 pM and the EC50/pM (1% HSA) was determined as 5.8 pM. In the data set with human GLP-1 receptor [6], this molecule returned an IC50 of 0.81 nM.
On to H[Aib]EGTFTSDVSSYLEEQAAREFIEWLVRGK([AEEA-AEEA-γGlu-Decanoyl(10-O(3-COOH-Ph))])K([AEEA-AEEA-γGlu-Decanoyl(10-O(3-COOH-Ph))]) [GLP-1 derivative of Example 27], for which, in the data set with human GLP-1 receptor [5], the EC50/pM (0% HSA) was 13 pM and the EC50/pM (1% HSA) turned out to be 105 pM. This molecule also showed an IC50 in the data set with human GLP-1 receptor [6] of 0.66 nM. Moreover, the IC50 with human GLP-1 receptor [7] amounted to 478 nM.
In turn, H[Aib]EGTFTSDVSSYLEEQAAREFIAWLVRGK([AEEA-AEEA-γGlu-γGlu-C14 diacid])K([AEEA-AEEA-γGlu-γGlu-C14 diacid]) [GLP-1 derivative of Example 21] displayed an EC50/pM (0% HSA) with human GLP-1 receptor [5] of 5.6 pM. Moreover, the EC50/pM (1% HSA) with human GLP-1 receptor [5] is 13 pM. For the same molecule, the IC50 with human GLP-1 receptor [6] was found to be 0.42 nM; with human GLP-1 receptor [7] it was 89 nM.
For H[Aib]EGTFTSDVSSYLEEQAAREFIAWLVRGK([AEEA-AEEA-γGlu-Decanoyl(10-O(3-COOH-Ph))])K([AEEA-AEEA-γGlu-Decanoyl(10-O(3-COOH-Ph))]) [GLP-1 derivative of Example 15] the same measures were 6.1 pM, 44 pM, 0.38 nM and 126 nM.
